# In US12295987B2, “Method of using a GIP/GLP1 co-agonist for diabetes” (Eli Lilly and Company, priority 2018, dated 2025):
# Numbered stars: 1 amine (or outer) side, 2 acyl side, 3 side chain; on linkers, the order of the positions; unused ones are H or OH. Square brackets hold non-standard residues; d marks the D form. Side chains are listed from the residue outwards. Ends that are not written are not given here. * marks the point of attachment. C20 diacid = O=C(O)CCCCCCCCCCCCCCCCCCC(=O)*; γGlu = O=C(O)[C@H](CCC(=O)[*:2])N[*:1]; AEEA = NCCOCCOCC(=O)O; Aib = CC(C)(N)C(=O)O
# Biological target: T1, human gastric inhibitory peptide receptor (hGIPR) (Homo sapiens, UniProt P48546)
# T1 construct: expressed in transfected cells; host or cells: HEK293
# T1 sequence (P48546 22-466): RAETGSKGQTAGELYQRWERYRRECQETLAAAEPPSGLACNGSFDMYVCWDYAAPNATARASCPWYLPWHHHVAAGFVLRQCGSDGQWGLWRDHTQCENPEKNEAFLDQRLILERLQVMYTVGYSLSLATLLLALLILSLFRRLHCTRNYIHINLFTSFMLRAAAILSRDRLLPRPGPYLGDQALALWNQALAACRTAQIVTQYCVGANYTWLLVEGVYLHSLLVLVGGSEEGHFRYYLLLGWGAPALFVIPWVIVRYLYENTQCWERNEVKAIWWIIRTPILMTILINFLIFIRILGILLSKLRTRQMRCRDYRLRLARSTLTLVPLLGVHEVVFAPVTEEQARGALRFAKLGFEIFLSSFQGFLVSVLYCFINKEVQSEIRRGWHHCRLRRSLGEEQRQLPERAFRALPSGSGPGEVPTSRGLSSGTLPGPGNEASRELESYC
# Assay: cAMP pharmacological functional assay in presence of 0.1% casein, hGIPR
# Type: cell-based
# Settings: ratio of hGIPR to hGLP1R cAMP EC50 ratios
# Protocol: Each receptor over-expressing cell line (20 μl) is treated with the test peptide in DMEM (Gibco Cat #31053) supplemented with 0.1% Casein (Sigma Cat #C4765), 250 μM IBMX, 1× GlutaMAX™ (Gibco Cat #35050), and 20 mM HEPES (HyClone Cat #SH30237.01) in a 20 μl assay volume. […] EC50 is the concentration of compound causing half-maximal simulation in a dose response curve. A relative EC50 value is derived by non-linear regression analysis using the percent maximal response vs. the concentration of peptide added, fitted to a four-parameter logistic equation.
# Intracellular cAMP levels are determined by extrapolation using a standard curve. Dose response curves of compounds are plotted as the percentage of stimulation normalized to minimum (buffer only) and maximum (maximum concentration of each control ligand) values and analyzed using a four parameter non-linear regression fit with a variable slope (Genedata Screener 13). EC50 is the concentration of compound causing half-maximal simulation in a dose response curve.
# EC50 is the concentration of compound causing half-maximal simulation in a dose response curve.
row,Substance,[hGIPR/hGLP1R] EC50 Ratio
1,Y-Aib-EGTFTSDYSILLDKIAQ-Aib-AFIEYLIEGGPSSGAPPPK((2-[2-(2-Amino-ethoxy)-ethoxy]-acetyl)2-(γGlu)-CO—(CH2)18—CO2H)—NH2 (Y[Aib]EGTFTSDYSILLDKIAQ[Aib]AFIEYLIEGGPSSGAPPPK([AEEA-AEEA-γGlu-C20 diacid])-NH2; N-terminus assumed; SMILES CC[C@H](C)[C@H](NC(=O)[C@H](CCCCN)NC(=O)[C@H](CC(=O)O)NC(=O)[C@H](CC(C)C)NC(=O)[C@H](CC(C)C)NC(=O)[C@@H](NC(=O)[C@H](CO)NC(=O)[C@H](Cc1ccc(O)cc1)NC(=O)[C@H](CC(=O)O)NC(=O)[C@H](CO)NC(=O)[C@@H](NC(=O)[C@H](Cc1ccccc1)NC(=O)[C@@H](NC(=O)CNC(=O)[C@H](CCC(=O)O)NC(=O)C(C)(C)NC(=O)[C@@H](N)Cc1ccc(O)cc1)[C@@H](C)O)[C@@H](C)O)[C@@H](C)CC)C(=O)N[C@@H](C)C(=O)N[C@@H](CCC(N)=O)C(=O)NC(C)(C)C(=O)N[C@@H](C)C(=O)N[C@@H](Cc1ccccc1)C(=O)N[C@H](C(=O)N[C@@H](CCC(=O)O)C(=O)N[C@@H](Cc1ccc(O)cc1)C(=O)N[C@@H](CC(C)C)C(=O)N[C@H](C(=O)N[C@@H](CCC(=O)O)C(=O)NCC(=O)NCC(=O)N1CCC[C@H]1C(=O)N[C@@H](CO)C(=O)N[C@@H](CO)C(=O)NCC(=O)N[C@@H](C)C(=O)N1CCC[C@H]1C(=O)N1CCC[C@H]1C(=O)N1CCC[C@H]1C(=O)N[C@@H](CCCCNC(=O)COCCOCCNC(=O)COCCOCCNC(=O)CC[C@H](NC(=O)CCCCCCCCCCCCCCCCCCC(=O)O)C(=O)O)C(N)=O)[C@@H](C)CC)[C@@H](C)CC) [Peptide 48],8.93
2,Y-Aib-EGTFTSDYSILLDKIAQ-Aib-AFIEYLIK((2-[2-(2-Amino-ethoxy)-ethoxy]-acetyl)2-(γGlu)-CO—(CH2)18—CO2H)GGPSSGAPPPS-NH2 (Y[Aib]EGTFTSDYSILLDKIAQ[Aib]AFIEYLIK([AEEA-AEEA-γGlu-C20 diacid])GGPSSGAPPPS-NH2; N-terminus assumed; SMILES CC[C@H](C)[C@H](NC(=O)[C@H](CCCCN)NC(=O)[C@H](CC(=O)O)NC(=O)[C@H](CC(C)C)NC(=O)[C@H](CC(C)C)NC(=O)[C@@H](NC(=O)[C@H](CO)NC(=O)[C@H](Cc1ccc(O)cc1)NC(=O)[C@H](CC(=O)O)NC(=O)[C@H](CO)NC(=O)[C@@H](NC(=O)[C@H](Cc1ccccc1)NC(=O)[C@@H](NC(=O)CNC(=O)[C@H](CCC(=O)O)NC(=O)C(C)(C)NC(=O)[C@@H](N)Cc1ccc(O)cc1)[C@@H](C)O)[C@@H](C)O)[C@@H](C)CC)C(=O)N[C@@H](C)C(=O)N[C@@H](CCC(N)=O)C(=O)NC(C)(C)C(=O)N[C@@H](C)C(=O)N[C@@H](Cc1ccccc1)C(=O)N[C@H](C(=O)N[C@@H](CCC(=O)O)C(=O)N[C@@H](Cc1ccc(O)cc1)C(=O)N[C@@H](CC(C)C)C(=O)N[C@H](C(=O)N[C@@H](CCCCNC(=O)COCCOCCNC(=O)COCCOCCNC(=O)CC[C@H](NC(=O)CCCCCCCCCCCCCCCCCCC(=O)O)C(=O)O)C(=O)NCC(=O)NCC(=O)N1CCC[C@H]1C(=O)N[C@@H](CO)C(=O)N[C@@H](CO)C(=O)NCC(=O)N[C@@H](C)C(=O)N1CCC[C@H]1C(=O)N1CCC[C@H]1C(=O)N1CCC[C@H]1C(=O)N[C@@H](CO)C(N)=O)[C@@H](C)CC)[C@@H](C)CC) [Peptide 37],9.98
3,"Y-Aib-EGT-αMeF(2F)-TSD-3Pal-SI-αMeL-LDEK((2-[2-(2-Amino-ethoxy)-ethoxy]-acetyl)2-(γGlu)-CO—(CH2)18—CO2H)AQ-Aib-EFIEYLIEGGPSSGAPPPS-NH2 (YXEGTXTSDXSIXLDEKAQXEFIEYLIEGGPSSGAPPPS; Aib, αMeF(2F), 3Pal, αMeL; lipidated K; C-terminal amide; (2)..(2) Xaa at position 2 is Aib; (6)..(6) Xaa at position 6 is alpha-methyl-Phe(2F); (10)..(10) Xaa at position 10 is 3Pal; (13)..(13) Xaa at position 13 is alpha-methyl-Leu; MOD_RES (17)..(17) Lys at position 17 is chemically modified by conjugation of the epsilon-amino group of the Lys side chain with (2-[2-(2-amino-ethoxy)-ethoxy]-acetyl)2-(gamma-Glu)-CO-(CH2)18- CO2H; (20)..(20) Xaa at posit) [Peptide 157]",2.52
4,"Y-Aib-EGT-αMeF(2F)-TSDYSI-αMeL-LD-Dab-K((2-[2-(2-Amino-ethoxy)-ethoxy]-acetyl)2-(γGlu)-CO—(CH2)18—CO2H)AQ-Aib-EFI-(D-Glu)-YLIEGGPSSGAPPPS-NH2 (YXEGTXTSDYSIXLDXKAQXEFIXYLIEGGPSSGAPPPS; Aib, αMeF(2F), αMeL, Dab, D-Glu; lipidated K; amide; (2)..(2) Xaa at position 2 is Aib; (6)..(6) Xaa at position 6 is alpha-methyl-Phe(2F); (13)..(13) Xaa at position 13 is alpha-methyl-Leu; (16)..(16) Xaa at position 16 is Dab; MOD_RES (17)..(17) Lys at position 17 is chemically modified by conjugation of the epsilon-amino group of the Lys side chain with (2-[2-(2-amino-ethoxy)-ethoxy]-acetyl)2-(gamma-Glu)-CO-(CH2)18- CO2H; (20)..(20) Xaa at positi) [Peptide 217]",2.99
5,"Y-Aib-EGT-αMeF(2F)-TSDYSI-αMeL-LDEK((2-[2-(2-Amino-ethoxy)-ethoxy]-acetyl)2-(γGlu)-CO—(CH2)18—CO2H)AQ-Aib-EFI-Aib-YLIEGGPSSGAPPPS-NH2 (YXEGTXTSDYSIXLDEKAQXEFIXYLIEGGPSSGAPPPS; Aib, αMeF(2F), αMeL; acylated lysine C20 diacid; amide; (2)..(2) Xaa at position 2 is Aib; (6)..(6) Xaa at position 6 is alpha-methyl-Phe(2F); (13)..(13) Xaa at position 13 is alpha-methyl-Leu; MOD_RES (17)..(17) Lys at position 17 is chemically modified by conjugation of the epsilon-amino group of the Lys side chain with (2-[2-(2-amino-ethoxy)-ethoxy]-acetyl)2-(gamma-Glu)-CO-(CH2)18- CO2H; (20)..(20) Xaa at position 20 is Aib; (24)..(24) Xaa at positi) [Peptide 152]",5.31
6,"Y-Aib-EGT-αMeF(2F)-TSDYSI-αMeL-LD-Orn-K((2-[2-(2-Amino-ethoxy)-ethoxy]-acetyl)2-(γGlu)-CO—(CH2)16—CO2H)AQ-Aib-EFI (D-Glu)-αMeY-LIEGGPSSGAPPPS-NH2 (YXEGTXTSDYSIXLDXKAQXEFIXXLIEGGPSSGAPPPS; Aib, Orn, αMe residues, lipidated Lys, D-Glu, amide; (2)..(2) Xaa at position 2 is Aib; (6)..(6) Xaa at position 6 is alpha-methyl-Phe(2F); (13)..(13) Xaa at position 13 is alpha-methyl-Leu; (16)..(16) Xaa at position 16 is Orn; MOD_RES (17)..(17) Lys at position 17 is chemically modified by conjugation of the epsilon-amino group of the Lys side chain with (2-[2-(2-amino-ethoxy)-ethoxy]-acetyl)2-(gamma-Glu)-CO-(CH2)16- CO2H; (20)..(20) Xaa at positi) [Peptide 236]",4.10
